Results: US20260250318A1, “COMPOSITIONS AND METHODS FOR CROSSING THE BLOOD BRAIN BARRIER” (VOYAGER THERAPEUTICS, INC., priority 2022, published 2026)

T1: ALPL (Homo sapiens, UniProt P05186)
T1 sequence (P05186 18-501): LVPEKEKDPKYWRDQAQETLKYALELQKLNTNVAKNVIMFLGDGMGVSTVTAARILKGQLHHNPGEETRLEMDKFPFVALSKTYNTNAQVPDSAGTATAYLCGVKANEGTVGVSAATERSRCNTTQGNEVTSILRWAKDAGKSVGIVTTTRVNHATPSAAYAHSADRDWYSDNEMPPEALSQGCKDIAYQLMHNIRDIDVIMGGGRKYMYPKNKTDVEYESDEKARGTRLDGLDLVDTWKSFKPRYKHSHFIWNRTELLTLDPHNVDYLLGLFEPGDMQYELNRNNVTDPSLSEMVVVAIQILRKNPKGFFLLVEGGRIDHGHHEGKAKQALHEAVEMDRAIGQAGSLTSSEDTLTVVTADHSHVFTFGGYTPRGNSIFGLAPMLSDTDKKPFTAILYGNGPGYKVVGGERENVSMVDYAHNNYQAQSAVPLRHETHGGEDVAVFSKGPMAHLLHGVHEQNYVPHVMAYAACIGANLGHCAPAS

T2: human ALPL expressed on cells (alkaline phosphatase tissue-nonspecific isozyme, NM_000478.4) (human, UniProt P05186 18-501)
T2 sequence: T1 sequence (P05186 18-501)

T3: ALPL with a deletion of the ER localization signal (ALPL transcript variant 2, NM_001127501) (human, UniProt P05186 56-501)
T3 sequence: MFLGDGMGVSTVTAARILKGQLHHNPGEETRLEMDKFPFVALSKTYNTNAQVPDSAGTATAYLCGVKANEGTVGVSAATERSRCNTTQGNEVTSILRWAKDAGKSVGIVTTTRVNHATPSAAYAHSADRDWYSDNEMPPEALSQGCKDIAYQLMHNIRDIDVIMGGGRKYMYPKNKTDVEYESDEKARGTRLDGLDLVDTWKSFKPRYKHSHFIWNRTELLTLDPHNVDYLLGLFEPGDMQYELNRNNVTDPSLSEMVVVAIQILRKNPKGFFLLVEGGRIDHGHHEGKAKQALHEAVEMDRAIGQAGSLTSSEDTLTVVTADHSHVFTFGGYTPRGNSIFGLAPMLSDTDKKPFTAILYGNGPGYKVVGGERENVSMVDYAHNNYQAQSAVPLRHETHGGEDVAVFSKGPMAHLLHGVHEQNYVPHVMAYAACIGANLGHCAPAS

T4: murine ALPL ortholog expressed on HEK 293T cells (NM_001287172.1) (mouse, UniProt P09242 18-501)
T4 sequence: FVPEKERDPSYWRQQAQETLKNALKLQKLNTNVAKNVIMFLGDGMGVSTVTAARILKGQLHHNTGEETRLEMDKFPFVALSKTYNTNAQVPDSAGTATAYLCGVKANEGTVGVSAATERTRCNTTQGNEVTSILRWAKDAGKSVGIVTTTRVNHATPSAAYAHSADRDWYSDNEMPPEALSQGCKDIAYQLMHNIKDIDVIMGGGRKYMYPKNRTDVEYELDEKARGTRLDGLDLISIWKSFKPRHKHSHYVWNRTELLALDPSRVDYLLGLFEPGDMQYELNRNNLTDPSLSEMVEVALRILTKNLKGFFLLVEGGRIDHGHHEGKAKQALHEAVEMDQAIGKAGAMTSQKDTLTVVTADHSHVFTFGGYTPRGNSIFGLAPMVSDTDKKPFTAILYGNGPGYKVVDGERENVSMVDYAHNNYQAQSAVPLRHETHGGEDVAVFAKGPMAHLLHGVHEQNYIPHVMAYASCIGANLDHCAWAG

T5: AAVR (universal AAV entry factor) expressed on HEK 293T cells (UniProt Q8IZA0 1-1049)
T5 construct: whole, on cells; also called AAVR positive control
T5 sequence: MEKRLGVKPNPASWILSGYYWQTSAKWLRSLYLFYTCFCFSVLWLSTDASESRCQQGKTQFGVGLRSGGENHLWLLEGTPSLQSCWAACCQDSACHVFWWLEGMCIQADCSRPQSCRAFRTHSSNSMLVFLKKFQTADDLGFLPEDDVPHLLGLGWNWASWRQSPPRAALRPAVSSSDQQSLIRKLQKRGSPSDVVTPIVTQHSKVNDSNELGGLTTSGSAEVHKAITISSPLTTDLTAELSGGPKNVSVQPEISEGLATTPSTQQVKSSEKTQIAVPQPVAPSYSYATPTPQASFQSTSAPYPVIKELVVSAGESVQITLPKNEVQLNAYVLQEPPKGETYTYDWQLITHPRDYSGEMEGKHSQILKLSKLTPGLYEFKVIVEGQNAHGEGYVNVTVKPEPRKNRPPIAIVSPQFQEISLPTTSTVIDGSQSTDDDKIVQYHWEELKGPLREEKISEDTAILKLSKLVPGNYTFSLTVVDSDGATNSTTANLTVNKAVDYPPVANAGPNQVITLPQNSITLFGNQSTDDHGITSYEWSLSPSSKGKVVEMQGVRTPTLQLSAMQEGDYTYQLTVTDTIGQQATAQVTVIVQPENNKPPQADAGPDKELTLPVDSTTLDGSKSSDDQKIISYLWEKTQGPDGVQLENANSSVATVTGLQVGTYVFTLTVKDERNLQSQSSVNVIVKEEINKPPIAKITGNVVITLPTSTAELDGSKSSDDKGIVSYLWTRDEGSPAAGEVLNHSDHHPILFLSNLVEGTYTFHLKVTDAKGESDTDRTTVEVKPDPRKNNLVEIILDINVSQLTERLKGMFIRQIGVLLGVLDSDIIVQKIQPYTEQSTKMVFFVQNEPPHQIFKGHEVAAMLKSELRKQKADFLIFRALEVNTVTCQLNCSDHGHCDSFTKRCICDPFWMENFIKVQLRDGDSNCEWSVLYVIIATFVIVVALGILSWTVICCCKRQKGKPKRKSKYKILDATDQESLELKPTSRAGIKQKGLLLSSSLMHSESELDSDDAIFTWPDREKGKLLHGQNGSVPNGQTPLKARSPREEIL

B1: TTM-001 capsid variant (AAV particle comprising the TTM-001 AAV9 capsid variant) (other)
chain 1: MAADGYLPDWLEDNLSEGIREWWALKPGAPQPKANQQHQDNARGLVLPGYKYLGPGNGLDKGEPVNAADAAALEHDKAYDQQLKAGDNPYLKYNHADAEFQERLKEDTSFGGNLGRAVFQAKKRLLEPLGLVEEAAKTAPGKKRPVEQSPQEPDSSAGIGKSGAQPAKKRLNFGQTGDTESVPDPQPIGEPPAAPSGVGSLTMASGGGAPVADNNEGADGVGSSSGNWHCDSQWLGDRVITTSTRTWALPTYNNHLYKQISNSTSGGSSNDNAYFGYSTPWGYFDFNRFHCHFSPRDWQRLINNNWGFRPKRLNFKLFNIQVKEVTDNNGVKTIANNLTSTVQVFTDSDYQLPYVLGSAHEGCLPPFPADVFMIPQYGYLTLNDGSQAVGRSSFYCLEYFPSQMLRTGNNFQFSYEFENVPFHSSYAHSQSLDRLMNPLIDQYLYYLSKTINGSGSPHSKAQNQQTLKFSVAGPSNMAVQGRNYIPGPSYRQQRVSTTVTQNNNSEFAWPGASSWALNGRNSLMNPGPAMASHKEGEDRFFPLSGSLIFGKQGTGRDNVDADKVMITNEEEIKTTNPVATESYGQVATNHQSAQAQAQTGWVQNQGILPGMVWQDRDVYLQGPIWAKIPHTDGNFHPSPLMGGFGMKHPPPQILIKNTPVPADPPTAFNKDKLNSFITQYSTGQVSVEIEWELQKENSKRWNPEIQYTSNYYKSNNVEFAVNTEGVYSEPRPIGTRYLTRNL
chain 2: TAPGKKRPVEQSPQEPDSSAGIGKSGAQPAKKRLNFGQTGDTESVPDPQPIGEPPAAPSGVGSLTMASGGGAPVADNNEGADGVGSSSGNWHCDSQWLGDRVITTSTRTWALPTYNNHLYKQISNSTSGGSSNDNAYFGYSTPWGYFDFNRFHCHFSPRDWQRLINNNWGFRPKRLNFKLFNIQVKEVTDNNGVKTIANNLTSTVQVFTDSDYQLPYVLGSAHEGCLPPFPADVFMIPQYGYLTLNDGSQAVGRSSFYCLEYFPSQMLRTGNNFQFSYEFENVPFHSSYAHSQSLDRLMNPLIDQYLYYLSKTINGSGSPHSKAQNQQTLKFSVAGPSNMAVQGRNYIPGPSYRQQRVSTTVTQNNNSEFAWPGASSWALNGRNSLMNPGPAMASHKEGEDRFFPLSGSLIFGKQGTGRDNVDADKVMITNEEEIKTTNPVATESYGQVATNHQSAQAQAQTGWVQNQGILPGMVWQDRDVYLQGPIWAKIPHTDGNFHPSPLMGGFGMKHPPPQILIKNTPVPADPPTAFNKDKLNSFITQYSTGQVSVEIEWELQKENSKRWNPEIQYTSNYYKSNNVEFAVNTEGVYSEPRPIGTRYLTRNL
chain 3: MASGGGAPVADNNEGADGVGSSSGNWHCDSQWLGDRVITTSTRTWALPTYNNHLYKQISNSTSGGSSNDNAYFGYSTPWGYFDFNRFHCHFSPRDWQRLINNNWGFRPKRLNFKLFNIQVKEVTDNNGVKTIANNLTSTVQVFTDSDYQLPYVLGSAHEGCLPPFPADVFMIPQYGYLTLNDGSQAVGRSSFYCLEYFPSQMLRTGNNFQFSYEFENVPFHSSYAHSQSLDRLMNPLIDQYLYYLSKTINGSGSPHSKAQNQQTLKFSVAGPSNMAVQGRNYIPGPSYRQQRVSTTVTQNNNSEFAWPGASSWALNGRNSLMNPGPAMASHKEGEDRFFPLSGSLIFGKQGTGRDNVDADKVMITNEEEIKTTNPVATESYGQVATNHQSAQAQAQTGWVQNQGILPGMVWQDRDVYLQGPIWAKIPHTDGNFHPSPLMGGFGMKHPPPQILIKNTPVPADPPTAFNKDKLNSFITQYSTGQVSVEIEWELQKENSKRWNPEIQYTSNYYKSNNVEFAVNTEGVYSEPRPIGTRYLTRNL

What was measured:
[1] = target: T1, ALPL; experiment: Inhibition of TTM-002 transduction by small molecule ALPL inhibitors in HeLa cells expressing ALPL; type: cell-based; design: endogenous in cells; host or cells: HeLa
Description: An inhibitor of ALPL was also investigated to determine if blocking the ALPL receptor would reduce cellular transduction of the TTM-002 capsid variant. […] The inhibitor or a vehicle control (equivalent amount of DMSO) was added to HeLa cells expressing ALPL 1 hour prior to transduction with an AAV viral particle comprising the TTM-002 capsid variant or an AAV9 control capsid and expressing a GFP-luciferase transgene under the control of a CAG promoter. The cells were then transduced with 1E4 VG/cell of an AAV particle comprising the TTM-002 capsid variant or an AAV9 control capsid. Media and virus were removed 4 hours post transduction and luciferase activity was measured (RLU) 24 hours post transduction.

[2] = target: T2, human ALPL expressed on cells (alkaline …); experiment: cell-based or functional assay
[3] = target: T2, human ALPL expressed on cells (alkaline …); experiment: cell-based or functional assay; remark: listed apart in the source
[4] = target: T3, ALPL with a deletion of the ER …; experiment: cell-based or functional assay
[5] = target: T2, human ALPL expressed on cells (alkaline …); experiment: cell-based or functional assay; remark: listed apart in the source
[6] = target: T4, murine ALPL ortholog expressed on HEK …; experiment: cell-based or functional assay
[7] = target: T5, AAVR (universal AAV entry factor) …; experiment: binding/internalization: AAV incubated 2 or 3 h with AAVR transfected HEK 293T cells, washed, viral genomes quantified
[8] = target: T2, human ALPL expressed on cells (alkaline …); experiment: binding/internalization: AAV incubated 2 or 3 h with ALPL transfected HEK 293T cells, washed, viral genomes quantified

Molecule | IC50 [1] [pM] | effect on TTM-002 transduction [1] | luciferase activity, fold change relative to pCMV6 transfected HEK 293T cells (ALPL transfected cells) [2] [fold] | fold change in luciferase activity relative to the pCMV6 control cells (cells transfected with ALPL) [3] [fold] | fold change in luciferase activity relative to the pCMV6 control cells (cells transfected with ALPL comprising a deletion of the ER localization signal) [4] [fold] | fold change in luciferase activity relative to the pCMV6 control cells (cells transfected with human ALPL protein) [5] [fold] | fold change in luciferase activity relative to the pCMV6 control cells (cells transfected with murine ALPL protein) [6] [fold] | fold change in viral gene expression (2^-ΔΔCT) relative to pCMV6 transfected cells [7] [fold] | fold change in viral gene expression (2^-ΔΔCT) relative to pCMV6 transfected cells [8] [fold]
COc1ccc(Cl)cc1S(=O)(=O)Nc1cncc(C(N)=O)c1 [SBI-425, 5-((5-chloro-2-methoxyphenyl)sulfonamido) nicotinamide] | 340 | significantly inhibited TTM-002 transduction | – | – | – | – | – | – | –
B1 | – | – | 35 | 22 | 2 | 22 | 18 | 6.64 | 3.16
